B1: human CNGA2 subunit (natural protein)
chain: MTEKTNGVKSSPANNHNHHAPPAIKANGKDDHRTSSRPHSAADDDTSSELQRLADVDAPQQGRSGFRRIVRLVGIIREWANKNFREEEPRPDSFLERFRGPELQTVTTQEGDGKGDKDGEDKGTKKKFELFVLDPAGDWYYCWLFVIAMPVLYNWCLLVARACFSDLQKGYYLVWLVLDYVSDVVYIADLFIRLRTGFLEQGLLVKDTKKLRDNYIHTLQFKLDVASIIPTDLIYFAVDIHSPEVRFNRLLHFARMFEFFDRTETRTNYPNIFRISNLVLYILVIIHWNACIYYAISKSIGFGVDTWVYPNITDPEYGYLAREYIYCLYWSTLTLTTIGETPPPVKDEEYLFVIFDFLIGVLIFATIVGNVGSMISNMNATRAEFQAKIDAVKHYMQFRKVSKGMEAKVIRWFDYLWTNKKTVDEREILKNLPAKLRAEIAINVHLSTLKKVRIFHDCEAGLLVELVLKLRPQVFSPGDYICRKGDIGKEMYIIKEGKLAVVADDGVTQYALLSAGSCFGEISILNIKGSKMGNRRTANIRSLGYSDLFCLSKDDLMEAVTEYPDAKKVLEERGREILMKEGLLDENEVATSMEVDVQEKLGQLETNMETLYTRFGRLLAEYTGAQQKLKQRITVLETKMKQNNEDDYLSDGMNSPELAAADEP
notes: CNGA2, human; Expressed from a tri-cistronic construct with P2A peptides between neighbouring genes; remnants of P2A may remain at chain ends (surmise); Two copies stand in the heterotetramer; also called A2L; A2R; source: HEK293F, BacMam, tri-cistronic P2A construct, purified within the CNGA2/A4/B1b complex (anti-Flag, Strep-Tactin, SEC); not shown: Flag, N-terminal, kept
B2: human CNGA4 subunit (natural protein)
chain: MSQDTKVKTTESSPPAPSKARKLLPVLDPSGDYYYWWLNTMVFPVMYNLIILVCRACFPDLQHGYLVAWLVLDYTSDLLYLLDMVVRFHTGFLEQGILVVDKGRISSRYVRTWSFFLDLASLMPTDVVYVRLGPHTPTLRLNRFLRAPRLFEAFDRTETRTAYPNAFRIAKLMLYIFVVIHWNSCLYFALSRYLGFGRDAWVYPDPAQPGFERLRRQYLYSFYFSTLILTTVGDTPPPAREEEYLFMVGDFLLAVMGFATIMGSMSSVIYNMNTADAAFYPDHALVKKYMKLQHVNRKLERRVIDWYQHLQINKKMTNEVAILQHLPERLRAEVAVSVHLSTLSRVQIFQNCEASLLEELVLKLQPQTYSPGEYVCRKGDIGQEMYIIREGQLAVVADDGITQYAVLGAGLYFGEISIINIKGNMSGNRRTANIKSLGYSDLFCLSKEDLREVLSEYPQAQTIMEEKGREILLKMNKLDVNAEAAEIALQEATESRLRGLDQQLDDLQTKFARLLAELESSALKIAYRIERLEWQTREWPMPEDLAEADDEGEPEEGTSKDEEGRASQEGPPGPE
notes: CNGA4, human; Expressed from a tri-cistronic construct with P2A peptides between neighbouring genes; remnants of P2A may remain at chain ends (surmise); source: HEK293F, BacMam, tri-cistronic P2A construct, purified within the CNGA2/A4/B1b complex (anti-Flag, Strep-Tactin, SEC); not shown: Flag, N-terminal, kept

Assays:
[1] = molecular target: the molecule itself; experiment: cryo-EM structure; CNGA2/A4/B1b co-expressed with CaM, complex purified with 2 mM CaCl2 in digitonin; apo (no cAMP), closed state; focused refinement around the CLZ region
[2] = molecular target: T1, human CNGB1b subunit (shorter CNGB1 variant, amino acids 456-1251) (human, UniProt Q14028 456-1251); experiment: as above; conditions: both partners purified
T1 construct: CNGB1b, olfactory shorter variant of human CNGB1 lacking the N-terminal GARP domain, amino acids 456-1251 of CNGB1; Expressed from a tri-cistronic construct with P2A peptides between neighbouring genes; remnants of P2A may remain at chain ends (surmise); source: HEK293F, BacMam, tri-cistronic P2A construct, purified within the CNGA2/A4/B1b complex (anti-Flag, Strep-Tactin, SEC); not shown: Flag, …
T1 sequence (Q14028 456-1251, stated change not applied): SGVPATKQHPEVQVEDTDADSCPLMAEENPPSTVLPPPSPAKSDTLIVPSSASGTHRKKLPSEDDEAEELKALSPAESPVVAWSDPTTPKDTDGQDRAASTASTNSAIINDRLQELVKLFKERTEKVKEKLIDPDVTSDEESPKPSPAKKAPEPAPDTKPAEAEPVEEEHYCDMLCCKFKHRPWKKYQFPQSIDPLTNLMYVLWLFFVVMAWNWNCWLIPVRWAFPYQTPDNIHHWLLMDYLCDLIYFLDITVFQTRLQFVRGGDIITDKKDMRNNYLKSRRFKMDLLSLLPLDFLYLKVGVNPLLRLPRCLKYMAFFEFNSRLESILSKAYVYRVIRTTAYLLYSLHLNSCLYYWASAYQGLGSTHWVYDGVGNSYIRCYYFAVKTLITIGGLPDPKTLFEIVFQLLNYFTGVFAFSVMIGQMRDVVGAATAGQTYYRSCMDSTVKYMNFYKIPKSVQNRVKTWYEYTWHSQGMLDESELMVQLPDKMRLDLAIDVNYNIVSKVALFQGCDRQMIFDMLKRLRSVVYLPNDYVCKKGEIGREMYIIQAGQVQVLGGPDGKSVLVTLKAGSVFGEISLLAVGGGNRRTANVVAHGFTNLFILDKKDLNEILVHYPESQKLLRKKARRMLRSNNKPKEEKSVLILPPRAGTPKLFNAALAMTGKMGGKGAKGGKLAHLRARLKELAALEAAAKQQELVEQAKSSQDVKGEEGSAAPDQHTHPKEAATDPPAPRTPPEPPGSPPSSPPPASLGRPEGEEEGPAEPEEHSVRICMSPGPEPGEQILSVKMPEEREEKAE

human calmodulin = molecular target: T2, human calmodulin (human, UniProt P0DP23 1-149); experiment: as above; conditions: both partners purified
T2 construct: calmodulin, human; The purified CaM (800 nM) and the endogenous HEK293 CaM of the patch-clamp recordings are written with this molecule; also called CaM; Ca^2+/CaM; source: HEK293F, BacMam, co-expressed with CNGA2/A4/B1b, co-purified (anti-Flag, Strep-Tactin, SEC); not shown: Strep, C-terminal, kept

human CNGA2 subunit = molecular target: B1; experiment: cryo-EM structure; CNGA2/A4/B1b after removal of CaM by EGTA and SEC, incubated with 5 mM cAMP; cAMP-bound open state; conditions: both partners purified

Row | Binder | binding result [1] | binding result [2] | binding result (human calmodulin) | binding result (human CNGA2 subunit)
1 | B1 | binds | binds | – | –
2 | B2 | – | binds | binds | binds

From article PMC12549891, “Structural mechanisms of assembly, gating, and calmodulin modulation of human olfactory CNG channel” (Nature Communications, 2025)
